PMC3510516

How the values were obtained:
Experiment in all cases: fluorescence anisotropy
[1] = system: GyrA CTD lacking GyrA-box (Bacillus subtilis); conditions: CTD: 50 mM Tris-HCl, 40 mM KCl (Results say NaCl), 10 mM MgCl2, 25 C (pH not stated), 100 nM DNA; gyrase: 50 mM Tris-HCl pH 7.5, 100 mM KCl, 10 mM MgCl2, 37 C …
[2] = system: GyrA CTD (Bacillus subtilis); conditions: CTD: 50 mM Tris-HCl, 40 mM KCl (Results say NaCl), 10 mM MgCl2, 25 C (pH not stated), 100 nM DNA; gyrase: 50 mM Tris-HCl pH 7.5, 100 mM KCl, 10 mM MgCl2, 37 C …
[3] = system: GyrA lacking GyrA-box (GyrA_dA);GyrB (Bacillus subtilis;Bacillus subtilis); conditions: 4 uM GyrB, 10 mM Mg2+, 37 C; CTD: 50 mM Tris-HCl, 40 mM KCl (Results say NaCl), 10 mM MgCl2, 25 C (pH not stated), 100 nM DNA; gyrase: 50 mM Tris-HCl pH 7.5, 100 mM KCl, 10 mM MgCl2, 37 C …
[4] = system: GyrA;GyrB (Bacillus subtilis;Bacillus subtilis); conditions: 4 uM GyrB, 10 mM Mg2+, 37 C; CTD: 50 mM Tris-HCl, 40 mM KCl (Results say NaCl), 10 mM MgCl2, 25 C (pH not stated), 100 nM DNA; gyrase: 50 mM Tris-HCl pH 7.5, 100 mM KCl, 10 mM MgCl2, 37 C …

40-bp DNA wrapping substrate
Kd [1]: 13.1 µM
Kd [2]: 13.2 µM

60-bp gate-DNA
Kd [3]: 0.05 µM
Kd [4]: 0.063 µM
